Measured values taken from PMC6332122, “Identification of RNA Oligonucleotides Binding to Several Proteins from Potential G-Quadruplex Forming Regions in Transcribed Pre-mRNA”.

These binders were tested against alpha-Thrombin (human, UniProt P00734;P00734 328-363;364-622) (assay: SPR; SPR: PBS (137 mM NaCl, 2.7 mM KCl, 8 mM Na2HPO4, 2 mM KH2PO4) pH 7.4, 25 °C, protein on CM5; EMSA: 50 mM Tris-HCl, 100 mM KCl, pH 7.5, room temperature, 1 uM RN). Settings: not given.

GGAGGAGGGGGAGGAGGA (structured_RNA) [VEGFA 5' UTR G4]: no binding.
GGGGGCAGGGCGCAGGAGGGAGAGGGGG (structured_RNA) [VEGFA intronic G4_2]: no binding.
GGGGGCGGGAGCCAGAGACCAGUGGGCAGGG (structured_RNA) [VEGFA intronic G4_1]: no binding.

Each binder was assayed against T1, VEGF165 (UniProt P15692-4 27-191) (assay: SPR; up to 1000 nM RNA; SPR: PBS (137 mM NaCl, 2.7 mM KCl, 8 mM Na2HPO4, 2 mM KH2PO4) pH 7.4, 25 °C, protein on CM5; EMSA: 50 mM Tris-HCl, 100 mM KCl, pH 7.5, room temperature, 1 uM RNA, 15% PAGE in TBE). Settings: protein: commercial; label: 5' fluorescein for EMSA; none for SPR; unexpected parallel G4 by CD.
T1 sequence (P15692 other isoform, or with tags, fused parts or gaps): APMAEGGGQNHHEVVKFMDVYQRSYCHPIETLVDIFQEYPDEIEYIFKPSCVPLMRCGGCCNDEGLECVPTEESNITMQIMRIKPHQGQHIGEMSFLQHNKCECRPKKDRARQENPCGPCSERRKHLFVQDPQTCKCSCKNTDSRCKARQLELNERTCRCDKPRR

GUUUGCGGGAGCCAGAGACCAGUGGGCAGGG (structured_RNA) [VEGFA intronic G4_1 mutant]: no binding.

Same assay, conditions: protein: commercial; no parallel G4 by CD

GGAUUAGUGUGAGGAGGA (ssRNA) [VEGFA 5' UTR G4 mutant]: no binding.
UUUUUCAGGGCGCAGGAGGGAGAUUUUU (ssRNA) [VEGFA intronic G4_2 mutant]: no binding.

The binders below were run against T1, VEGF165 (assay: SPR; SPR: PBS (137 mM NaCl, 2.7 mM KCl, 8 mM Na2HPO4, 2 mM KH2PO4) pH 7.4, 25 °C, protein on CM5; EMSA: 50 mM Tris-HCl, 100 mM KCl, pH 7.5, room temperature, 1 uM RNA, 15% PAGE in TBE). Settings: protein: commercial; label: 5' fluorescein for EMSA; none for SPR; parallel G4.

In the case of GGGGGCGGGAGCCAGAGACCAGUGGGCAGGG (structured_RNA) [VEGFA intronic G4_1], the Kd is reported as 140 nM.

Same assay, conditions: protein: commercial; parallel G4

Compared with GGGCGCGGGGUUUGGGGUGGG (structured_RNA) [PDGFB intronic G4_1], GGAGGAGGGGGAGGAGGA (structured_RNA) [VEGFA 5' UTR G4] is 2.3-fold higher in Kd: 130 nM for the first, 300 nM for the second. The first binds more tightly here.

Compared with GGGCACUCGGGUAGGGGGAGGACUAGGG (structured_RNA) [PDGFB intronic G4_2], GGGUUUGGUUGGGCACAGGGCACGGG (structured_RNA) [PDGFB intronic G4_3] is 2.9-fold higher in Kd: 150 nM for the first, 440 nM for the second. The first binds more tightly here.

First: GGGGAAGGGGAGCUGGGGCGCAGCGGG (structured_RNA) [PDGFA intronic G4_1]
Second: GGGGGCAGGGCGCAGGAGGGAGAGGGGG (structured_RNA) [VEGFA intronic G4_2]
The Kd of the first is 16-fold higher: 490 nM for the first, 31 nM for the second.

For GGGGUGCGGGGAGCGGGGAAGGG (structured_RNA) [PDGFA intronic G4_2], the Kd was 200 nM.

What follows are binders tested against PDGF-AA (UniProt P04085 87-211) in the same assay as above. Settings: protein: commercial; chain copies: 2; label: 5' fluorescein for EMSA; none for SPR; parallel G4.

GGGGGCGGGAGCCAGAGACCAGUGGGCAGGG (structured_RNA) [VEGFA intronic G4_1] was tested, and the Kd was 20 nM.

Same assay, conditions: protein: commercial; chain copies: 2; parallel G4

Going from GGGCGCGGGGUUUGGGGUGGG (structured_RNA) [PDGFB intronic G4_1] to GGAGGAGGGGGAGGAGGA (structured_RNA) [VEGFA 5' UTR G4], the Kd rises from 30 nM to 60 nM (2-fold).

Compared with GGGCACUCGGGUAGGGGGAGGACUAGGG (structured_RNA) [PDGFB intronic G4_2], GGGUUUGGUUGGGCACAGGGCACGGG (structured_RNA) [PDGFB intronic G4_3] is 2-fold higher in Kd: 20 nM for the first, 40 nM for the second. The first binds more tightly here.

Going from GGGGAAGGGGAGCUGGGGCGCAGCGGG (structured_RNA) [PDGFA intronic G4_1] to GGGGGCAGGGCGCAGGAGGGAGAGGGGG (structured_RNA) [VEGFA intronic G4_2], the Kd falls from 30 nM to 20 nM (1.5-fold).

GGGGUGCGGGGAGCGGGGAAGGG (structured_RNA) [PDGFA intronic G4_2] was tested, and the Kd was 30 nM.

The binders below were run against PDGF-BB (UniProt P01127 82-190) in the same assay as above. Settings: protein: commercial; chain copies: 2; label: 5' fluorescein for EMSA; none for SPR; parallel G4.
Sequence of PDGF-BB (P01127 82-190): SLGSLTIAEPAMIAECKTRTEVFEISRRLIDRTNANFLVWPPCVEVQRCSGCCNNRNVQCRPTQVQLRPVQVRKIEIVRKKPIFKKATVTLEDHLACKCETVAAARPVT

GGGGGCGGGAGCCAGAGACCAGUGGGCAGGG (structured_RNA) [VEGFA intronic G4_1] showed a Kd of 40 nM.

Same assay, conditions: protein: commercial; chain copies: 2; parallel G4

Going from GGGCGCGGGGUUUGGGGUGGG (structured_RNA) [PDGFB intronic G4_1] to GGAGGAGGGGGAGGAGGA (structured_RNA) [VEGFA 5' UTR G4], the Kd rises from 40 nM to 110 nM (2.8-fold).

First: GGGCACUCGGGUAGGGGGAGGACUAGGG (structured_RNA) [PDGFB intronic G4_2]
Second: GGGUUUGGUUGGGCACAGGGCACGGG (structured_RNA) [PDGFB intronic G4_3]
The Kd of the first is 2-fold lower: 30 nM for the first, 60 nM for the second.

GGGGAAGGGGAGCUGGGGCGCAGCGGG (structured_RNA) [PDGFA intronic G4_1] and GGGGGCAGGGCGCAGGAGGGAGAGGGGG (structured_RNA) [VEGFA intronic G4_2] are the same in Kd: 30 nM for the first, 30 nM for the second.

For GGGGUGCGGGGAGCGGGGAAGGG (structured_RNA) [PDGFA intronic G4_2], the Kd was 30 nM.
